Test results from patent publication US12303551B2, “Cellular immunotherapy compositions and uses thereof” (CERO THERPEUTICS HOLDINGS, INC., priority 2018, dated 2025).

B1: CER117: Chimeric engulfment receptor: Tim4 binding, Tim4 transmembrane, TLR8 and TRAF6 signaling; SEQ ID NO: 153 (protein)
chain: MSKGLLLLWLVTELWWLYLTPAASEDTIIGFLGQPVTLPCHYLSWSQSRNSMCWGKGSCPNSKCNAELLRTDGTRIISRKSTKYTLLGKVQFGEVSLTISNTNRGDSGVYCCRIEVPGWFNDVKKNVRLELRRATTTKKPTTTTRPTTTPYVTTTTPELLPTTVMTTSVLPTTTPPQTLATTAFSTAVTTCPSTTPGSFSQETTKGSAFTTESETLPASNHSQRSMMTISTDIAVLRPTGSNPGILPSTSQLTTQKTTLTTSESLQKTTKSHQINSRQTILIIACCVGFVLMVLLFLAFLHHLFYWDVWFIYNVCLAKVKGYRSLSTSQTFYDAYISYDTKDASVTDWVINELRYHLEESRDKNVLLCLEERDWDPGLAIIDNLMQSINQSKKTVFVLTKKYAKSWNFKTAFYLALQRLMDENMDVIIFILLEPVLQHSQYLRLRQRICKSSILQWPDNPKAEGLFWQTLRNVVLTENDSRYNNMYVDSIKQYMSLLNCENSCGSSQSESDCCVAMASSCSAVTKDDSVGGTASTGNLSSSFMEEIQGYDVEFDPPLESKYECPICLMALREAVQTPCGHRFCKACIIKSIRDAGHKCPVDNEILLENQLFPDNFAKREILSLMVKCPNEGCLHKMELRHLEDHQAHCEFALMDCPQCQRPFQKFHINIHILKDCPRRQVSCDNCAASMAFEDKEIHDQNCPLANVICEYCNTILIREQMPNHYDLDCPTAPIPCTFSTFGCHEKMQRNHLARHLQENTQSHMRMLA
modifications: CER117, amino acids 1-22 are signal peptide
B2: CER104: Chimeric engulfment receptor: Tim4 binding, Tim4 transmembrane, TLR8 and DAP12 signaling; SEQ ID NO: 139 (protein)
chain: MSKGLLLLWLVTELWWLYLTPAASEDTIIGFLGQPVTLPCHYLSWSQSRNSMCWGKGSCPNSKCNAELLRTDGTRIISRKSTKYTLLGKVQFGEVSLTISNTNRGDSGVYCCRIEVPGWFNDVKKNVRLELRRATTTKKPTTTTRPTTTPYVTTTTPELLPTTVMTTSVLPTTTPPQTLATTAFSTAVTTCPSTTPGSFSQETTKGSAFTTESETLPASNHSQRSMMTISTDIAVLRPTGSNPGILPSTSQLTTQKTTLTTSESLQKTTKSHQINSRQTILIIACCVGFVLMVLLFLAFLHHLFYWDVWFIYNVCLAKVKGYRSLSTSQTFYDAYISYDTKDASVTDWVINELRYHLEESRDKNVLLCLEERDWDPGLAIIDNLMQSINQSKKTVFVLTKKYAKSWNFKTAFYLALQRLMDENMDVIIFILLEPVLQHSQYLRLRQRICKSSILQWPDNPKAEGLFWQTLRNVVLTENDSRYNNMYVDSIKQYYFLGRLVPRGRGAAEAATRKQRITETESPYQELQGQRSDVYSDLNTQRPYYK
modifications: CER104, amino acids 1-22 are signal peptide
B3: CER116: Chimeric engulfment receptor: Tim4 binding, Tim4 transmembrane, TRAF6 and TLR8 signaling; SEQ ID NO: 152 (protein)
chain: MSKGLLLLWLVTELWWLYLTPAASEDTIIGFLGQPVTLPCHYLSWSQSRNSMCWGKGSCPNSKCNAELLRTDGTRIISRKSTKYTLLGKVQFGEVSLTISNTNRGDSGVYCCRIEVPGWFNDVKKNVRLELRRATTTKKPTTTTRPTTTPYVTTTTPELLPTTVMTTSVLPTTTPPQTLATTAFSTAVTTCPSTTPGSFSQETTKGSAFTTESETLPASNHSQRSMMTISTDIAVLRPTGSNPGILPSTSQLTTQKTTLTTSESLQKTTKSHQINSRQTILIIACCVGFVLMVLLFLAFLMSLLNCENSCGSSQSESDCCVAMASSCSAVTKDDSVGGTASTGNLSSSFMEEIQGYDVEFDPPLESKYECPICLMALREAVQTPCGHRFCKACIIKSIRDAGHKCPVDNEILLENQLFPDNFAKREILSLMVKCPNEGCLHKMELRHLEDHQAHCEFALMDCPQCQRPFQKFHINIHILKDCPRRQVSCDNCAASMAFEDKEIHDQNCPLANVICEYCNTILIREQMPNHYDLDCPTAPIPCTFSTFGCHEKMQRNHLARHLQENTQSHMRMLAHHLFYWDVWFIYNVCLAKVKGYRSLSTSQTFYDAYISYDTKDASVTDWVINELRYHLEESRDKNVLLCLEERDWDPGLAIIDNLMQSINQSKKTVFVLTKKYAKSWNFKTAFYLALQRLMDENMDVIIFILLEPVLQHSQYLRLRQRICKSSILQWPDNPKAEGLFWQTLRNVVLTENDSRYNNMYVDSIKQY
modifications: CER116, amino acids 1-22 are signal peptide

System: SCC152 cells
Test: Elimination of GFP-expressing SCC152 target cells over time (quantification and time lapse imaging)
Assay type: cell-based
Settings: for elimination of SCC152 cells, time lapse imaging: 0 to 36 hrs, compared to the control; for elimination of SCC152 cells (GFP quantification): by 36 hrs, 1:1:1 ratio (CD8:CD4:target cell), compared to control; for number of SCC152 cells in time lapse imaging: 96-well co-culture, CD8+/E7 TCR + CD4+/CER + SCC152 1:1:1, compared to control
Method in brief: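 GFP-labelled SCC152 (HPV16+) target cells were co-cultured at 1:1:1 with CD8+ T cells carrying an HPV16 E7 TCR and with CD4+ T cells transduced with a chimeric CER or a control. Remaining target cells were counted by fluorescence imaging and automated software at 0, 12, 24, 36 h or 0, 24, 48 h.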

Molecule	elimination of SCC152 cells, time lapse imaging	elimination of SCC152 cells (GFP quantification)	number of SCC152 cells in time lapse imaging
B1	enhanced elimination of SCC152 cells	nearly complete elimination	–
B2	–	–	decreasing in numbers over time
B3	enhanced elimination of SCC152 cells	nearly complete elimination	decreasing in numbers over time
